Data on 1 variant can be found in IntAct's records for PubMed 18388957.

B1: Inhibitor of growth protein 1 (Homo sapiens), Q9UK53-2 (parent)
chain: MLSPANGEQLHLVNYVEDYLDSIESLPFDLQRNVSLMREIDAKYQEILKELDECYERFSRETDGAQKRRMLHCVQRALIRSQELGDEKIQIVSQMVELVENRTRQVDSHVELFEAQQELGDTAGNSGKAGADRPKGEAAAQADKPNSKRSRRQRNNENRENASSNHDHDDGASGTPKEKKAKTSKKKKRSKAKAEREASPADLPIDPNEPTYCLCNQVSYGEMIGCDNDECPIEWFHFSCVGLNHKPKGKWYCPKCRGENEKTMDKALEKSKKERAYNR

In this assay the parent is B1. Particulars: with nqo1_human NQO1, P15559.
Take S126A: the “effect of a mutation on the interaction” value was “disrupting interaction”.
